# Assay results from US20140296491A1 (MILTENYI BIOTECH, published 2014).
# How the values were obtained:
# [1] = target: T1, human CD8 on CD8+ cells of human PBMCs (human, UniProt P01732 22-235); test: phage display selection on hCD8a with EDTA elution, then clone screening
# T1 construct: whole, on cells; Immunization and panning used recombinant hCD8a (Ser 22-Asp 182, His tag); The flow cytometry used native CD8 on PBMCs; also called hCD8; hCD8a
# Procedure: Flow cytometry results of screened clones of library 2a from EDTA eluates after panning cycle IIb with triple depletion of Ca2+ independent hCD8a binders. After exclusion of dead cells and cell debris CD8+ cells were identified as a CD3+/CD4− cell population. hCD8-specific Fabs were detected by anti-polyhistidine-PE (anti-HIS-PE). Mean fluorescence intensities (MFI) of anti-HIS-PE staining were plotted to evaluate the influence of 10 mM EDTA. 75_A1 (uninoculated medium) and 75_C1 (anti-MUC1 scFv expressing clone) were negative controls, while 75_B1 (CD8 BW135/80) served as positive control. FIG. 7: MFI before and after addition of EDTA. FIG. 8: MFI ratio (−)EDTA/(+)EDTA. FIG. 9: Dot plots of clone KRR75_G1 before and after the addition of 10 mM EDTA.
# Variations in panning process were tested to direct the selection towards Ca2+ dependent binding. […]
# Clones generated by different selection procedures and stages were characterized upon hCD8 specificity and potential Ca2+ dependent binding. […] Supernatants of these cultures were analyzed for the presence hCD8 specific Fabs using a flow cytometric staining assay in the Ca2+ containing buffer HBSS (Hank's balanced salt solution) +0.5% BSA. […] Bound Fabs were detected via the polyhistidine tag of the Fab and an anti-polyhistidine tag-fluorochrome conjugate. […]
# [2] = target: T1, human CD8 on CD8+ cells of human PBMCs; test: flow cytometry on human CD8+ cells, before and after EDTA
# Procedure: FIGS. 10, 11, and 12 show flow cytometry results of screened clones after panning cycle IIIb. Flow cytometry results of screened clones (see 4.4.2.2) of library 1a and 2a from EDTA eluates after panning cycle IIIb. After exclusion of dead cells and cell debris CD8+ cells were identified as a CD3+/CD4− cell population. hCD8 specific Fabs were detected by anti-His-PE. Mean fluorescence intensities (MFI) of anti-His-PE staining were plotted to evaluate the influence of 10 mM EDTA on staining with certain Fab clones. 77_A1 (uninoculated medium) and 77_C1 (anti-MUC1 scFv expressing clone) were negative controls, while 77_B1 (CD8 BW135/80) served as positive control for hCD8 staining. FIG. 10: MFI before and after addition of EDTA. FIG. 11: MFI ratio (−)EDTA/(+)EDTA. FIG. 12: Dot plot of clone KRR77_D1 before and after the addition of 10 mM EDTA.
# Clones generated by different selection procedures and stages were characterized upon hCD8 specificity and potential Ca2+ dependent binding. Therefore, Fab expressions of single clones were performed in a microtiter plate format (150 μL). Supernatants of these cultures were analyzed for the presence hCD8 specific Fabs using a flow cytometric staining assay in the Ca2+ containing buffer HBSS (Hank's balanced salt solution) +0.5% BSA. […] Bound Fabs were detected via the polyhistidine tag of the Fab and an anti-polyhistidine tag-fluorochrome conjugate. […]
# T1 sequence (P01732 22-235): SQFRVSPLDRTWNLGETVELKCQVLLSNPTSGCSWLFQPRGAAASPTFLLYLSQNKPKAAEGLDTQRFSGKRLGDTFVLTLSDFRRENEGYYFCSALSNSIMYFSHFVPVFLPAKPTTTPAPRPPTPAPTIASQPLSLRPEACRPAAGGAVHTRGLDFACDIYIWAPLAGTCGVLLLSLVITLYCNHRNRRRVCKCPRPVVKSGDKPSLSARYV
binder,measurement,setting,value
"chimeric recombinant Fab CD8 KRR75_G1 (Fab, V domains shown, also called clone KRR75_G1) VH: EVQLQQSGPELVKPGASVKMSCKASGYTFTDYVISWMKQRTGQGLEWIGEIYPGSGSDYYNEKFKGKATLTADKSSNTAYMQLSSLTSEDSAVYFCARWGITDYFDVWGAGTTVTVSS VL: ETTVTQSPASLSMAIGEKVTIRCITSTDIDDDMNWYQQKPGEPPKLLISEGNTLRPGVPSRFSSSGYGTDFVFTIENMLSEDVADYYCLQSDNLPFTFGSGTKLEIK",binding result,[1],binds
"chimeric recombinant Fab CD8 KRR77_D1 (Fab, V domains shown, also called clone KRR77_D1) VH: QVQLKESGPGLVQPSQSLSITCTVSGFSLTSYGVHWVRQSPGKGLEWLGVIWRGGSTDYNAAFMSRLSITKDNSKSQVFFKMNSLQADDTAIYYCAKNSITPFAYWGQGTLVTVSA VL: ETTVTQSPASLSMAIGEKVTIRCITSTDIDDDMNWYQQKPGEPPKLLISEGNTLRPGVPSRFSSSGYGTDFVFTIENMLSEDVADYYCLQSDNLPFTFGSGTKLEIK",binding result,[2],binds
